B1: scFv; the commonest letter at each place (parent)
chain 1: EVKLDETGGGLVQPGRPMKLSCVASGFTFSDYWMNWVRQSPEKGLEWVAQIRNKPYNYETYYSDSVKGRFTISRDDSKSSVYLQMNNLRVEDMGIYYCTGSYYGMDYWGQGTSVTVS
chain 2: DVVMTQTPLSLPVSLGDQASISCRSSQSLVHSNGNTYLRWYLQKPGQSPKVLIYKVSNRFSGVPDRFSGSGSGTDFTLKISRVEAEDLGVYFCSQSTHVPWTFGGGTKLEIK

Tests used:
[1] = variants of: B1; assay: Kd (Tite-Seq); conditions: with fluorescein; format: scFv 4-4-20, heavy + light
[2] = variants of: B1; assay: yeast surface expression (ratio to wild type); higher = more expressed; conditions: format: scFv 4-4-20, heavy + light

Variant	Kd [1] [µM]	yeast surface expression [2]
chain 1 D31G W33Q	≥ 10	0.657
chain 1 F29D W33C M34D	≥ 10	0.403
chain 1 Y107H	0.00251	1
chain 1 Y107W W108T	≤ 0.000316	0.647
chain 1 Y102N	0.0175	1.04
chain 1 Y102A G109K	≥ 10	0.279
chain 1 Y103H G104F	≥ 10	0.477
chain 1 Y102R Y103P	≥ 10	0.979
chain 1 D31Y N35I	≥ 10	0.469
chain 1 F29M W33M	≥ 10	0.873
chain 1 G100D G109I	≥ 10	0.553
chain 1 D31L Y32M	≥ 10	0.772
chain 1 S101W M105Q	≥ 10	0.517
chain 1 D31Q W36V	≥ 10	0.596
chain 1 W36G V37Q	≥ 10	1.13
chain 1 S30D W36V	≥ 10	0.766
chain 1 Y102S G109L	≥ 10	0.228
chain 1 Y102Q D106Y	≥ 10	0.268
chain 1 G100W G104L W108M	≥ 10	0.108
chain 1 S30I M34N	≥ 10	0.512
chain 1 T28D	0.00184	1.15
chain 1 M34S W36Q	≥ 10	0.147

Variant	Kd [1] [µM]	yeast surface expression [2]
chain 1 G100N G109R	≥ 10	0.283
chain 1 F29D D31E	≥ 10	1.01
chain 1 Y32L M34A	≥ 10	0.634
chain 1 G100K G104H	≥ 10	0.322
chain 1 T28W D31F	0.116	0.553
chain 1 N35K	0.228	0.806
chain 1 W33K V37L	0.345	0.761
chain 1 S30H Y32R V37Q	0.0189	1.99
chain 1 Y32S M34S V37M	≥ 10	0.65
chain 1 M105D G109F	≥ 10	0.218
chain 1 V37S	0.00561	0.673
chain 1 G104K Y107N	≥ 10	0.424
chain 1 S101L Y103K	≥ 10	0.524
chain 1 G100D Y102S	≥ 10	0.289
chain 1 M105A G109A	≥ 10	0.685
chain 1 W33K	≥ 10	0.699
chain 1 Y107L G109R	≥ 10	0.343
chain 1 S101D W108N	≥ 10	0.445
chain 1 M105E Y107C	≥ 10	0.847
chain 1 S30R N35V	≥ 10	0.567
chain 1 D31V W33D	≥ 10	0.821
chain 1 T28E F29Q	0.00827	1

Variant	Kd [1] [µM]	yeast surface expression [2]
chain 1 Y103H G109M	≥ 10	0.304
chain 1 M34C N35I	≥ 10	0.462
chain 1 W36P V37Y	≥ 10	0.75
chain 1 Y102S D106W	≥ 10	0.385
chain 1 Y102W Y107W	0.00158	0.797
chain 1 S101K Y103T	≥ 10	0.456
chain 1 D31F N35I	≥ 10	1.11
chain 1 Y102M M105K D106W	≥ 10	0.527
chain 1 F29C D31Y	≥ 10	0.522
chain 1 G100K W108H	≥ 10	0.249
chain 1 G104L M105L	≥ 10	0.303
chain 1 G109S	0.00361	0.826
chain 1 Y103L G109I	≥ 10	0.206
chain 1 S30L W33E	≥ 10	0.645
chain 1 Y103S M105R	0.176	0.819
chain 1 M34K	0.694	0.913
chain 1 G100S M105I	≥ 10	0.943
chain 1 Y32N M34G	≥ 10	0.608
chain 1 S30M D31F	5.66	0.611
chain 1 F29A V37S	≥ 10	0.545

Continued, in another order:

Kd [1] [µM]	Variant	yeast surface expression [2]
0.0194	chain 1 Y107Q	0.757
1.72	chain 1 Y107E	0.803
≥ 10	chain 1 Y103V Y107M	0.53
≥ 10	chain 1 G100W G104I	0.359
≥ 10	chain 1 D31C N35Y	0.763
≥ 10	chain 1 D31P W36I	0.513
≥ 10	chain 1 M34N W36E	0.587
≥ 10	chain 1 Y32C M34Y	0.843
≥ 10	chain 1 G100V G109Y	0.271
≥ 10	chain 1 D31N N35T	0.86
≥ 10	chain 1 Y32M W33V	0.941
≥ 10	chain 1 Y32L W36Q	0.875
≥ 10	chain 1 S30Y Y32S W33T	0.934
0.00251	chain 1 S101D D106R W108I	0.452
0.00158	chain 1 T28H	0.965
0.00966	chain 1 Y103W Y107W	0.724
≥ 10	chain 1 G104Y	0.464
≥ 10	chain 1 S101V	0.496
≥ 10	chain 1 M34K W36M	0.273
0.00278	chain 1 D31E	0.925
≥ 10	chain 1 D106W G109A	0.168
≥ 10	chain 1 M34Y N35R	0.505
≥ 10	chain 1 D31R W33S M34P	0.182
≥ 10	chain 1 D31Y W36S	0.638
2.96	chain 1 D106A	0.694
0.00785	chain 1 D106T	1.09

Kd [1] [µM]	Variant	yeast surface expression [2]
≥ 10	chain 1 D106I	0.577
0.00606	chain 1 G100C S101A	0.711
0.00239	chain 1 V37I	0.916
≥ 10	chain 1 S101R W108V	0.24
≥ 10	chain 1 W108G G109V	0.228
0.00493	chain 1 S30T M34I	0.678
≥ 10	chain 1 G100E D106Q	0.172
8.13	chain 1 M105I Y107Q	0.872
≥ 10	chain 1 M105I Y107S	0.853
≥ 10	chain 1 S30R N35F	0.413
≥ 10	chain 1 Y32N	1.21
≥ 10	chain 1 Y32I M34S	0.65
≥ 10	chain 1 G104M G109L	0.0989
0.00493	chain 1 T28E V37T	0.693
≥ 10	chain 1 D106R Y107N	0.359
≥ 10	chain 1 Y32V M34D	0.218
≥ 10	chain 1 M34I N35W	0.41
≥ 10	chain 1 S101T Y103E G104K	0.854
≥ 10	chain 1 N35V W36M	0.488
≥ 10	chain 1 G109H	0.268
0.0525	chain 1 G109A	0.719
≥ 10	chain 1 W108H G109C	0.362
0.000989	chain 1 Y107H W108T	0.924
≥ 10	chain 1 S30T V37W	0.671
0.00142	chain 1 M34L	0.971
≥ 10	chain 1 Y103F G104R W108Y	0.139
